Values of other authors as cited in publication PMC4843017.

Biological target: Ndc80 complex (Homo sapiens) (UniProt O14777)
Assay: isothermal titration calorimetry

Ndc80 complex (Homo sapiens), sequence (O14777 whole entry, chain 1 of 4): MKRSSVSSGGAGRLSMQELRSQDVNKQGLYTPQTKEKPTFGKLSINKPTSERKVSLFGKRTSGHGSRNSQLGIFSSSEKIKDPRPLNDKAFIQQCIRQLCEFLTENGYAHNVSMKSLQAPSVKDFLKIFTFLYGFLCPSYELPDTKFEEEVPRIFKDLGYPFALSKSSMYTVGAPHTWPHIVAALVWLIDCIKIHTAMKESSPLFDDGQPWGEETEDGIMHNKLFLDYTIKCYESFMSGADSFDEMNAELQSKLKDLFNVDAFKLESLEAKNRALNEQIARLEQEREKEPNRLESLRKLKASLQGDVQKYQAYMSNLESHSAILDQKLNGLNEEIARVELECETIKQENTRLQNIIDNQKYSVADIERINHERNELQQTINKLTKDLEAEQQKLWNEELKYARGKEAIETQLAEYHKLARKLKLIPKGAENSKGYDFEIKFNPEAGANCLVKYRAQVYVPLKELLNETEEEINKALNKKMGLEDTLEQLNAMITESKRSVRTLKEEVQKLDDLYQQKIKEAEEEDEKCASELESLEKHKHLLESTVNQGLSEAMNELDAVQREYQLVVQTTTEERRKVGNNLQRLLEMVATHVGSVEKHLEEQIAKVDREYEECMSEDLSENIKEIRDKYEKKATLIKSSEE
Ndc80 complex (Homo sapiens), sequence (Q9BZD4 whole entry, chain 2 of 4, further chain): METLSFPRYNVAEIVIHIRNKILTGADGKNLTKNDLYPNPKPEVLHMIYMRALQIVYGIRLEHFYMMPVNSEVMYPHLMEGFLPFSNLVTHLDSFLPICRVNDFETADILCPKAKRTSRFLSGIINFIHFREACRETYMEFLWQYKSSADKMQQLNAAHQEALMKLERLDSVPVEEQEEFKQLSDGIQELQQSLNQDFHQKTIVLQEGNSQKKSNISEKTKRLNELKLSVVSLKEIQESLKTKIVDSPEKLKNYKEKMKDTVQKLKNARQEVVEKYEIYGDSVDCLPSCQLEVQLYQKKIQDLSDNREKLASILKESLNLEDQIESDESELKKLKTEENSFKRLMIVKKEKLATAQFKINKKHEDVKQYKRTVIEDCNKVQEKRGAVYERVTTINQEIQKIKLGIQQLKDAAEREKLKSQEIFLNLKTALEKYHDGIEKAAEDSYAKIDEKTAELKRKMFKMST
Ndc80 complex (Homo sapiens), sequence (Q8NBT2 whole entry, chain 3 of 4, further chain): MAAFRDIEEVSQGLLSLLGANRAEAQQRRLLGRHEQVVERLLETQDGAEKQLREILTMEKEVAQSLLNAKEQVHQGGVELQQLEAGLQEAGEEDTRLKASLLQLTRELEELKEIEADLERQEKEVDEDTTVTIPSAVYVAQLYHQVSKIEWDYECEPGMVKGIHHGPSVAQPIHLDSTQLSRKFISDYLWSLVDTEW
Ndc80 complex (Homo sapiens), sequence (Q9HBM1 whole entry, chain 4 of 4, further chain): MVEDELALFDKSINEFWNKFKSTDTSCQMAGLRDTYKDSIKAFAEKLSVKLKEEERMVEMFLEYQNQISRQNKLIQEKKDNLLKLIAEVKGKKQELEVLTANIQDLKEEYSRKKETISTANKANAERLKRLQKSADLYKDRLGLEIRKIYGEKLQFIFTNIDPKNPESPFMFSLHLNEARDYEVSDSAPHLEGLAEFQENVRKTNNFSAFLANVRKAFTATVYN

- Kd: 10 nM
Substance: Mis12 complex (from UniProt Q9H081)
